Measurements from patent US20150111836A1, “CELLULAR APOBEC3 PROTEINS AND MODULATORS THEREOF FOR REGULATING DNA REPAIR PROCESSES AND TREATING PROLIFERATIVE DISEASES” (priority 2012, published 2015).

Key:
[1] = molecular target: purified recombinant A3G-His6 (human APOBEC3G with C-terminal Myc-His6 tag, expressed in 293T cells) (human) (UniProt Q9HC16); assay: cell-based or functional assay
[2] = molecular target: virion-associated A3G (endogenous A3G of H9 cells packaged in HIV-1 particles) (human) (UniProt Q9HC16); assay: cell-based or functional assay

Chain of purified recombinant A3G-His6 (human APOBEC3G with C-terminal Myc-His6 tag, expressed in 293T cells) (human) (Q9HC16 whole entry): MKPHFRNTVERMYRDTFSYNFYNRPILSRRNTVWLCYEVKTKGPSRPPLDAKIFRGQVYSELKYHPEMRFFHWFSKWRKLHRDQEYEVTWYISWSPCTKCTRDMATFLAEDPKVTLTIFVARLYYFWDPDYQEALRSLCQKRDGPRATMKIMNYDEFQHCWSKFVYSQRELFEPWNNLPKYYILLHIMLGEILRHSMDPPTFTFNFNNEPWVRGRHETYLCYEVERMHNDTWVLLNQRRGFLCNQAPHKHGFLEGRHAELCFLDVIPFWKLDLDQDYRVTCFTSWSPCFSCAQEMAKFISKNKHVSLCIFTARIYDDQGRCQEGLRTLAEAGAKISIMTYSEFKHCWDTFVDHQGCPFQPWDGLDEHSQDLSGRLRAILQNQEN

| Substance | inhibition of A3G deaminase activity [1] | further results |
| --- | --- | --- |
| BSA (from UniProt P02769 25-607) |  | A3G deaminase activity [1]: 10 µM |
| Vif9-23 peptide | 1 µM |  |
| Vif37-51 peptide | 1 µM |  |
| Vif101-115 peptide | 1 µM |  |
| Vif113-127 peptide | 1 µM |  |
| Vif molecules associated with HIV-1 particles (wt HIV-1 HXB2 virions) (from UniProt P05900 1-192) |  | specific activity of virion-associated A3G deaminase (wt vs Δvif particles, normalized to A3G protein content) [2]: 36.5% |
